Assay results reported in the supplement of paper PMC10065799, “High-throughput profiling of sequence recognition by tyrosine kinases and SH2 domains using bacterial peptide display” (eLife, 2023).

What follows are sequences tested on c-Abl (mouse) (assay: phosphorylation enrichment, bacterial display (enrichment ratio); higher = better substrate or ligand; peptides without Tyr show the background).
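Also: 11-residue human phosphosite peptides and single-mutation variants displayed on the E. coli surface, counted by deep sequencing, each peptide's frequency after selection divided by its frequency in the unselected input library; frequency after pTyr selection over input frequency; kinase dosed for 20-30% of maximal phosphorylation in three min.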

Sequence	phosphorylation enrichment
VRRVGYVSGWG [HP_Y280_G276R]	0.642
QSAGQYSSQGL [TNNI3K_Y788]	0.777
MKTISYETLIA [DOCK10_Y1350]	0.526
SVVVHYEPPEV [TP53_Y220_P219H]	1.72
ERPGVYTNVVE [F11_Y608]	0.513
ATLDVYNPFET [SCAMP3_Y41]	0.838
HLATEYVFSDF [PANX1_Y10_Q5H]	0.863
DTCPPYVLSQG [GJB4_Y237]	1.07
GILDVYIFLGP [GAA_Y340]	0.866
RRERDYTNLPS [CSF1R_Y923]	0.692
NREGVYTDFAP [TGFBI_Y537_V539D]	0.868
VEDPEYAVTQL [STOML2_Y124]	0.597
GSTLSYFGLAT [P2RX7_Y343_A348T]	0.998
QQLVAYFSKHT [SRC_Y232_A237T_YF]	0.646
IKEFKYGIEEH [GJA1_Y137_K134E]	0.612
GRLPEYNTRIA [CCDC151_Y542]	0.513
KASGKYYAMKI [AKT3_Y173]	0.518

Sequence	phosphorylation enrichment
KLNNEYLELNF [MME_Y497_YF]	0.778
KLLRLYAVVTR [LYN_Y306_V303L]	0.918
GDYYRSLAEVA [YWHAG_Y133_Y133S]	1.82
SPPILYSFYLN [FCRL6_Y239_D244N]	1.5
CLAKMYYSAVD [CP_Y539]	0.674
SHGQDYLVGNK [GSTA1_Y147]	0.62
ETKKQYDSFTY [TMED3_Y85]	0.639
DWWQEYVLNES [TGM1_Y267_R264W]	0.777
SSMIDYNLLEK [MYOC_Y479_P481L]	0.685
NACGLYYKLHN [GATA2_Y376]	0.922
RLLRGYDQSAY [HLA-C_Y137]	0.468
LHAALYKRKLL [TTLL5_Y542_E543K]	1.24
WHHTFYNEPRV [ACTA1_Y93_L96P]	0.709
VDTRAYFTSAT [MT-CO1_Y304]	0.382
FSSLGYPLPEG [ZSWIM4_Y87_P89L_YF]	0.501
SEASFYKSLNL [NGEF_Y289_YF]	0.852

The sequences below were run against EPHB1 (UniProt P54762) in the same assay as above.
EPHB1, sequence (P54762 whole entry, looked up): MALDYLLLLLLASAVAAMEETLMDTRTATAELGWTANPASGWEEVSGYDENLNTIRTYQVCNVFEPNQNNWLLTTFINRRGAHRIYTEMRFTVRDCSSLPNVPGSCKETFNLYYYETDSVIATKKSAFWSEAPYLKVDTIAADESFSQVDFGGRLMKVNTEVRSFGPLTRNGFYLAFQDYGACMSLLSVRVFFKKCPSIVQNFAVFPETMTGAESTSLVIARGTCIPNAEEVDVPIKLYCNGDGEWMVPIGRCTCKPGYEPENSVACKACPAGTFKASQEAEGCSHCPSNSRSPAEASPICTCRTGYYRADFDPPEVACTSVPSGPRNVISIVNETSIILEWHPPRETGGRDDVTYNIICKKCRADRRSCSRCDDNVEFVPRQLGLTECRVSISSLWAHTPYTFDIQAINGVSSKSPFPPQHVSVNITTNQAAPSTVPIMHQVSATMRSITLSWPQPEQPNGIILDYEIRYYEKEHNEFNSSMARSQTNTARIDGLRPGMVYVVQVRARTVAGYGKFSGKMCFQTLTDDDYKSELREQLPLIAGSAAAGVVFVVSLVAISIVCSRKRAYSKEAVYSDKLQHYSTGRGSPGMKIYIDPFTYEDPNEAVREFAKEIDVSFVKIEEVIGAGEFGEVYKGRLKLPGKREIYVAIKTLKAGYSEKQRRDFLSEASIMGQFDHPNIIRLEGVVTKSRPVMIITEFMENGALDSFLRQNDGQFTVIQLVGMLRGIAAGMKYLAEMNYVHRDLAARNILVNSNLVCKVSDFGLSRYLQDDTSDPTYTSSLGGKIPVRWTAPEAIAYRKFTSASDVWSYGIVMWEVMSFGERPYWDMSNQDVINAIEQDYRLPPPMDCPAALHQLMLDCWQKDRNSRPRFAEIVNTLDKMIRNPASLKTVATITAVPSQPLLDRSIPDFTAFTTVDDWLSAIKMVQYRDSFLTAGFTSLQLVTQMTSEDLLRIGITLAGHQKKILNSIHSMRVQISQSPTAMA

Sequence	phosphorylation enrichment
VRRVGYVSGWG [HP_Y280_G276R]	0.422
QSAGQYSSQGL [TNNI3K_Y788]	0.95
MKTISYETLIA [DOCK10_Y1350]	0.53
SVVVHYEPPEV [TP53_Y220_P219H]	0.699
ERPGVYTNVVE [F11_Y608]	0.417
ATLDVYNPFET [SCAMP3_Y41]	0.629
HLATEYVFSDF [PANX1_Y10_Q5H]	0.808
DTCPPYVLSQG [GJB4_Y237]	0.637
GILDVYIFLGP [GAA_Y340]	0.787
RRERDYTNLPS [CSF1R_Y923]	0.447
NREGVYTDFAP [TGFBI_Y537_V539D]	0.578
VEDPEYAVTQL [STOML2_Y124]	0.466
GSTLSYFGLAT [P2RX7_Y343_A348T]	0.635
QQLVAYFSKHT [SRC_Y232_A237T_YF]	0.676
IKEFKYGIEEH [GJA1_Y137_K134E]	0.39
GRLPEYNTRIA [CCDC151_Y542]	0.341
KASGKYYAMKI [AKT3_Y173]	0.329

Sequence	phosphorylation enrichment
KLNNEYLELNF [MME_Y497_YF]	0.844
KLLRLYAVVTR [LYN_Y306_V303L]	0.982
GDYYRSLAEVA [YWHAG_Y133_Y133S]	1.68
SPPILYSFYLN [FCRL6_Y239_D244N]	3.78
CLAKMYYSAVD [CP_Y539]	1.02
SHGQDYLVGNK [GSTA1_Y147]	0.402
ETKKQYDSFTY [TMED3_Y85]	0.397
DWWQEYVLNES [TGM1_Y267_R264W]	0.831
SSMIDYNLLEK [MYOC_Y479_P481L]	0.455
NACGLYYKLHN [GATA2_Y376]	1.13
RLLRGYDQSAY [HLA-C_Y137]	0.569
LHAALYKRKLL [TTLL5_Y542_E543K]	0.454
WHHTFYNEPRV [ACTA1_Y93_L96P]	0.573
VDTRAYFTSAT [MT-CO1_Y304]	0.37
FSSLGYPLPEG [ZSWIM4_Y87_P89L_YF]	0.372
SEASFYKSLNL [NGEF_Y289_YF]	0.589

These sequences were tested on AncSZ in the same assay as above.

Sequence	phosphorylation enrichment
VRRVGYVSGWG [HP_Y280_G276R]	0.613
QSAGQYSSQGL [TNNI3K_Y788]	0.703
MKTISYETLIA [DOCK10_Y1350]	0.847
SVVVHYEPPEV [TP53_Y220_P219H]	1.15
ERPGVYTNVVE [F11_Y608]	0.66
ATLDVYNPFET [SCAMP3_Y41]	1.09
HLATEYVFSDF [PANX1_Y10_Q5H]	2.12
DTCPPYVLSQG [GJB4_Y237]	1.12
GILDVYIFLGP [GAA_Y340]	1.27
RRERDYTNLPS [CSF1R_Y923]	2.88
NREGVYTDFAP [TGFBI_Y537_V539D]	0.843
VEDPEYAVTQL [STOML2_Y124]	1.24
GSTLSYFGLAT [P2RX7_Y343_A348T]	1.09
QQLVAYFSKHT [SRC_Y232_A237T_YF]	0.898
IKEFKYGIEEH [GJA1_Y137_K134E]	0.836
GRLPEYNTRIA [CCDC151_Y542]	0.512
KASGKYYAMKI [AKT3_Y173]	0.499

Sequence	phosphorylation enrichment
KLNNEYLELNF [MME_Y497_YF]	1.16
KLLRLYAVVTR [LYN_Y306_V303L]	0.997
GDYYRSLAEVA [YWHAG_Y133_Y133S]	1.3
SPPILYSFYLN [FCRL6_Y239_D244N]	1.21
CLAKMYYSAVD [CP_Y539]	1.14
SHGQDYLVGNK [GSTA1_Y147]	0.585
ETKKQYDSFTY [TMED3_Y85]	0.735
DWWQEYVLNES [TGM1_Y267_R264W]	2.11
SSMIDYNLLEK [MYOC_Y479_P481L]	0.855
NACGLYYKLHN [GATA2_Y376]	1.5
RLLRGYDQSAY [HLA-C_Y137]	0.57
LHAALYKRKLL [TTLL5_Y542_E543K]	0.771
WHHTFYNEPRV [ACTA1_Y93_L96P]	0.965
VDTRAYFTSAT [MT-CO1_Y304]	0.61
FSSLGYPLPEG [ZSWIM4_Y87_P89L_YF]	0.747
SEASFYKSLNL [NGEF_Y289_YF]	0.98

These sequences were tested against FGFR1 (UniProt P11362) in the same assay as above.
FGFR1, sequence (P11362 whole entry, looked up): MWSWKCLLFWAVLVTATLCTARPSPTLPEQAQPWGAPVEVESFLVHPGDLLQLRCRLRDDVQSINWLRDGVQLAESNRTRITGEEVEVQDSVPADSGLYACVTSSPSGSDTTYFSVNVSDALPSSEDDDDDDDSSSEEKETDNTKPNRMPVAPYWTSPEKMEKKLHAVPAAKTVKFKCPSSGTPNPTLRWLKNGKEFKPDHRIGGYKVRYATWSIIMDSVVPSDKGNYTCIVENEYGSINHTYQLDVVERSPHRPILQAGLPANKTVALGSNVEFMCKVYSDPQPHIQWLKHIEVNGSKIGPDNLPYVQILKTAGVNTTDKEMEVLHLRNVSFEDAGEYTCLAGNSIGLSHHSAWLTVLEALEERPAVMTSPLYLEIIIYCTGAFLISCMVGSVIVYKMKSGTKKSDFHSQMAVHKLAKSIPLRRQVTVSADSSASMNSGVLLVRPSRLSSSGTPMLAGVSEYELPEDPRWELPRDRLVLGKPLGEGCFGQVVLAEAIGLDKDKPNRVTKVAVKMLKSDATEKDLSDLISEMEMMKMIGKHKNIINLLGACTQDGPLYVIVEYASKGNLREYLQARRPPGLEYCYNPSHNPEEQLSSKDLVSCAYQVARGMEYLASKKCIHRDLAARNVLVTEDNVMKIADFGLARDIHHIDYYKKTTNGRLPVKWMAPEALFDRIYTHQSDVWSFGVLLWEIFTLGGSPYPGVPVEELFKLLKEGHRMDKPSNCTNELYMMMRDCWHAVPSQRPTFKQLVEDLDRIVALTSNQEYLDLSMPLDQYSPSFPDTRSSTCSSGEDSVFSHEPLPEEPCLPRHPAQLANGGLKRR

Sequence	phosphorylation enrichment
VRRVGYVSGWG [HP_Y280_G276R]	0.373
QSAGQYSSQGL [TNNI3K_Y788]	0.387
MKTISYETLIA [DOCK10_Y1350]	0.472
SVVVHYEPPEV [TP53_Y220_P219H]	0.525
ERPGVYTNVVE [F11_Y608]	0.438
ATLDVYNPFET [SCAMP3_Y41]	0.52
HLATEYVFSDF [PANX1_Y10_Q5H]	1.67
DTCPPYVLSQG [GJB4_Y237]	0.552
GILDVYIFLGP [GAA_Y340]	0.864
RRERDYTNLPS [CSF1R_Y923]	0.493
NREGVYTDFAP [TGFBI_Y537_V539D]	0.645
VEDPEYAVTQL [STOML2_Y124]	0.477
GSTLSYFGLAT [P2RX7_Y343_A348T]	1.36
QQLVAYFSKHT [SRC_Y232_A237T_YF]	0.562
IKEFKYGIEEH [GJA1_Y137_K134E]	0.508
GRLPEYNTRIA [CCDC151_Y542]	0.404
KASGKYYAMKI [AKT3_Y173]	0.565

Sequence	phosphorylation enrichment
KLNNEYLELNF [MME_Y497_YF]	4.77
KLLRLYAVVTR [LYN_Y306_V303L]	0.409
GDYYRSLAEVA [YWHAG_Y133_Y133S]	5.42
SPPILYSFYLN [FCRL6_Y239_D244N]	0.807
CLAKMYYSAVD [CP_Y539]	0.812
SHGQDYLVGNK [GSTA1_Y147]	0.385
ETKKQYDSFTY [TMED3_Y85]	0.5
DWWQEYVLNES [TGM1_Y267_R264W]	1.61
SSMIDYNLLEK [MYOC_Y479_P481L]	0.526
NACGLYYKLHN [GATA2_Y376]	1.43
RLLRGYDQSAY [HLA-C_Y137]	0.394
LHAALYKRKLL [TTLL5_Y542_E543K]	0.483
WHHTFYNEPRV [ACTA1_Y93_L96P]	0.522
VDTRAYFTSAT [MT-CO1_Y304]	0.397
FSSLGYPLPEG [ZSWIM4_Y87_P89L_YF]	0.413
SEASFYKSLNL [NGEF_Y289_YF]	0.395
